Measurements: the supplement of paper PMC9112550, “Optimization of the antimicrobial peptide Bac7 by deep mutational scanning” (BMC Biology, 2022)

Tested on: Escherichia coli TOP10
Experiment: shrunken log2 fold change of peptide-encoding DNA abundance (4.5 h post-induction vs induction); higher = less antimicrobial activity (less host growth inhibition)
Settings: time post-induction: 4.5 h; library: site-saturation at positions 5, 18, 19, 20
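Note: peptides expressed intracellularly from a pBAD plasmid library in pooled LB shake-flask culture, induced with 0.3% L-arabinose, DNA abundance read by NGS, three biological replicates, DESeq2 with apeglm shrinkage.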

| Sequence | shrunken log2 fold change |
| --- | --- |
| RRIRHRPPRLPRPRPRPIPLPRP | -0.193 |
| RRIRTRPPRLPRPRPRPMDAPRP | 0.0575 |
| RRIRNRPPRLPRPRPRPLYSPRP | -0.761 |
| RRIRLRPPRLPRPRPRPYGCPRP | -0.318 |
| RRIRSRPPRLPRPRPRPPQYPRP | -0.0375 |
| RRIRDRPPRLPRPRPRPLHPPRP | 0.286 |
| RRIRPRPPRLPRPRPRPKRAPRP | 0.395 |
| RRIRFRPPRLPRPRPRPNEQPRP | 0.027 |
| RRIRLRPPRLPRPRPRPNKRPRP | -0.121 |
| RRIRQRPPRLPRPRPRPNIHPRP | -0.619 |
| RRIRKRPPRLPRPRPRPKVPPRP | 0.225 |
| RRIRSRPPRLPRPRPRPAGIPRP | 0.138 |
| RRIRARPPRLPRPRPRPCIPPRP | 2.51 |
| RRIRPRPPRLPRPRPRPPAYPRP | -0.0312 |
| RRIRARPPRLPRPRPRPWLAPRP | 0.162 |
| RRIRQRPPRLPRPRPRPEEPPRP | 0.0685 |
| RRIRHRPPRLPRPRPRPYTHPRP | -1.46 |
| RRIRSRPPRLPRPRPRPHSVPRP | -0.036 |
| RRIRHRPPRLPRPRPRPGLQPRP | 0.157 |
| RRIRVRPPRLPRPRPRPADFPRP | 0.0696 |
| RRIRPRPPRLPRPRPRPMCYPRP | -0.221 |
| RRIRFRPPRLPRPRPRPAGIPRP | -0.161 |
| RRIRKRPPRLPRPRPRPIHWPRP | 0.137 |
| RRIRARPPRLPRPRPRPAFSPRP | 0.215 |
| RRIRKRPPRLPRPRPRPIIGPRP | 0.00654 |

| Sequence | shrunken log2 fold change |
| --- | --- |
| RRIRSRPPRLPRPRPRPCKPPRP | -0.173 |
| RRIRSRPPRLPRPRPRPHFAPRP | 0.0285 |
| RRIRIRPPRLPRPRPRPWNYPRP | 0.0299 |
| RRIRWRPPRLPRPRPRPTCGPRP | 0.73 |
| RRIRMRPPRLPRPRPRPCAFPRP | 0.121 |
| RRIRYRPPRLPRPRPRPAFGPRP | -0.21 |
| RRIRERPPRLPRPRPRPQCVPRP | -0.0437 |
| RRIRMRPPRLPRPRPRPDCRPRP | 0.134 |
| RRIRNRPPRLPRPRPRPQNCPRP | 0.0292 |
| RRIRGRPPRLPRPRPRPVYDPRP | 0.32 |
| RRIRARPPRLPRPRPRPEKMPRP | 0.706 |
| RRIRGRPPRLPRPRPRPILKPRP | 0.316 |
| RRIRIRPPRLPRPRPRPFCAPRP | -0.088 |
| RRIRSRPPRLPRPRPRPENYPRP | -0.127 |
| RRIRRRPPRLPRPRPRPTSSPRP | 0.04 |
| RRIRRRPPRLPRPRPRPLKEPRP | 0.0888 |
| RRIRPRPPRLPRPRPRPDVKPRP | -0.137 |
| RRIRVRPPRLPRPRPRPTPKPRP | 0.297 |
| RRIRIRPPRLPRPRPRPNEGPRP | -0.45 |
| RRIRWRPPRLPRPRPRPWCMPRP | -0.0174 |
| RRIRKRPPRLPRPRPRPRLGPRP | 0.587 |
| RRIRARPPRLPRPRPRPLRIPRP | 2.9 |
| RRIRVRPPRLPRPRPRPNHWPRP | 0.203 |
| RRIRERPPRLPRPRPRPQLFPRP | 0.0984 |
| RRIRFRPPRLPRPRPRPMVTPRP | -0.138 |

| Sequence | shrunken log2 fold change |
| --- | --- |
| RRIRTRPPRLPRPRPRPVLFPRP | -0.193 |
| RRIRDRPPRLPRPRPRPMTNPRP | -0.184 |
| RRIRLRPPRLPRPRPRPDSFPRP | -0.0169 |
| RRIRARPPRLPRPRPRPRCEPRP | 0.416 |
| RRIRSRPPRLPRPRPRPPWGPRP | 0.317 |
| RRIRKRPPRLPRPRPRPTEVPRP | 0.158 |
| RRIRRRPPRLPRPRPRPCKVPRP | -0.0103 |
| RRIRPRPPRLPRPRPRPWKGPRP | 0.0625 |
| RRIRMRPPRLPRPRPRPLDTPRP | -0.0606 |
| RRIRVRPPRLPRPRPRPWCVPRP | -0.504 |
| RRIRLRPPRLPRPRPRPAHNPRP | 0.255 |
| RRIRFRPPRLPRPRPRPINIPRP | -0.113 |
| RRIRHRPPRLPRPRPRPFMTPRP | -0.188 |
| RRIRTRPPRLPRPRPRPLWQPRP | 0.0687 |
| RRIRARPPRLPRPRPRPSQLPRP | 0.262 |
| RRIRRRPPRLPRPRPRPNDGPRP | 0.0979 |
| RRIRWRPPRLPRPRPRPIADPRP | 0.0247 |
| RRIRWRPPRLPRPRPRPVRLPRP | 0.428 |
| RRIRDRPPRLPRPRPRPCTKPRP | -0.0891 |
| RRIRARPPRLPRPRPRPGAYPRP | 0.249 |
| RRIRPRPPRLPRPRPRPGGFPRP | 0.318 |
| RRIRQRPPRLPRPRPRPPCCPRP | 0.0763 |
| RRIRMRPPRLPRPRPRPDSPPRP | 0.0492 |
| RRIRWRPPRLPRPRPRPCPLPRP | -0.247 |
| RRIRHRPPRLPRPRPRPCRIPRP | -0.0589 |

| Sequence | shrunken log2 fold change |
| --- | --- |
| RRIRNRPPRLPRPRPRPTREPRP | 0.15 |
| RRIRTRPPRLPRPRPRPYKAPRP | -1.77 |
| RRIRSRPPRLPRPRPRPYLEPRP | -0.118 |
| RRIRPRPPRLPRPRPRPCSPPRP | 0.0563 |
| RRIRFRPPRLPRPRPRPIVAPRP | -0.112 |
| RRIRTRPPRLPRPRPRPHRNPRP | -0.677 |
| RRIRCRPPRLPRPRPRPPYTPRP | -0.343 |
| RRIRWRPPRLPRPRPRPSWAPRP | 0.152 |
| RRIRARPPRLPRPRPRPYMFPRP | -0.262 |
| RRIRFRPPRLPRPRPRPGDTPRP | -0.309 |
| RRIRMRPPRLPRPRPRPTNDPRP | 0.231 |
| RRIRIRPPRLPRPRPRPEAMPRP | 0.124 |
| RRIRNRPPRLPRPRPRPSSMPRP | -0.458 |
| RRIRERPPRLPRPRPRPQYIPRP | -0.219 |
| RRIRKRPPRLPRPRPRPTDSPRP | -0.0461 |
| RRIRGRPPRLPRPRPRPMICPRP | 0.166 |
| RRIRERPPRLPRPRPRPMEWPRP | 0.0338 |
| RRIRMRPPRLPRPRPRPMFCPRP | -0.0875 |
| RRIRRRPPRLPRPRPRPEFKPRP | 0.0599 |
| RRIRSRPPRLPRPRPRPNKAPRP | 0.0174 |
| RRIRQRPPRLPRPRPRPSNSPRP | -0.294 |
| RRIRDRPPRLPRPRPRPNGFPRP | -0.0113 |
| RRIRFRPPRLPRPRPRPEKMPRP | 0.0434 |
| RRIRQRPPRLPRPRPRPSWYPRP | -0.0733 |
| RRIRRRPPRLPRPRPRPKRGPRP | 0.44 |

| Sequence | shrunken log2 fold change |
| --- | --- |
| RRIRSRPPRLPRPRPRPKHCPRP | -0.00217 |
| RRIRCRPPRLPRPRPRPCGWPRP | 0.456 |
| RRIRTRPPRLPRPRPRPLISPRP | -0.145 |
| RRIRIRPPRLPRPRPRPARMPRP | 0.223 |
| RRIRARPPRLPRPRPRPEMMPRP | 1.12 |
| RRIRDRPPRLPRPRPRPFCRPRP | 0.0534 |
| RRIRARPPRLPRPRPRPVNIPRP | -0.123 |
| RRIRDRPPRLPRPRPRPAMDPRP | 0.335 |
| RRIRHRPPRLPRPRPRPHATPRP | 0.0228 |
| RRIRGRPPRLPRPRPRPGRPPRP | 0.737 |
| RRIRVRPPRLPRPRPRPECVPRP | 0.399 |
| RRIRYRPPRLPRPRPRPYAYPRP | -0.948 |
| RRIRKRPPRLPRPRPRPLAPPRP | 0.65 |
| RRIRARPPRLPRPRPRPMNQPRP | -0.135 |
| RRIRTRPPRLPRPRPRPTCRPRP | -0.0601 |
| RRIRERPPRLPRPRPRPQGGPRP | -0.0586 |
| RRIRQRPPRLPRPRPRPMLMPRP | -0.0108 |
| RRIRCRPPRLPRPRPRPIGYPRP | -0.00724 |
| RRIRMRPPRLPRPRPRPTRCPRP | 0.863 |
| RRIRYRPPRLPRPRPRPSFYPRP | -1.06 |
| RRIRNRPPRLPRPRPRPCAAPRP | 0.0594 |
| RRIRPRPPRLPRPRPRPVFPPRP | 0.181 |
| RRIRSRPPRLPRPRPRPYCLPRP | -0.434 |
| RRIRWRPPRLPRPRPRPVYFPRP | -0.418 |
| RRIRRRPPRLPRPRPRPIQWPRP | -0.105 |

| Sequence | shrunken log2 fold change |
| --- | --- |
| RRIRWRPPRLPRPRPRPPPWPRP | 0.616 |
| RRIRSRPPRLPRPRPRPQHQPRP | -0.0399 |
| RRIRKRPPRLPRPRPRPIFMPRP | 0.0293 |
| RRIRSRPPRLPRPRPRPDILPRP | 0.115 |
| RRIRFRPPRLPRPRPRPMIKPRP | -0.749 |
| RRIRMRPPRLPRPRPRPEEDPRP | 0.0356 |
| RRIRLRPPRLPRPRPRPNFEPRP | 0.0189 |
| RRIRSRPPRLPRPRPRPNFTPRP | -0.0286 |
| RRIRKRPPRLPRPRPRPFTNPRP | -0.0844 |
| RRIRERPPRLPRPRPRPYIRPRP | -1.16 |
| RRIRPRPPRLPRPRPRPFIFPRP | 0.29 |
| RRIRWRPPRLPRPRPRPGIPPRP | 0.11 |
| RRIRRRPPRLPRPRPRPWTTPRP | 0.201 |
| RRIRDRPPRLPRPRPRPHPPPRP | 0.402 |
| RRIRGRPPRLPRPRPRPNQNPRP | 0.4 |
| RRIRERPPRLPRPRPRPKSMPRP | -0.307 |
| RRIRCRPPRLPRPRPRPSGYPRP | -0.724 |
| RRIRQRPPRLPRPRPRPHNYPRP | -0.437 |
| RRIRSRPPRLPRPRPRPRGNPRP | 0.0829 |
| RRIRMRPPRLPRPRPRPSAEPRP | 2.7 |
| RRIRQRPPRLPRPRPRPQSYPRP | 0.015 |
| RRIRYRPPRLPRPRPRPGPPPRP | 0.277 |
| RRIRDRPPRLPRPRPRPYLAPRP | -0.0552 |
| RRIRPRPPRLPRPRPRPGEWPRP | 0.214 |
| RRIRRRPPRLPRPRPRPSCTPRP | 0.0387 |
